Measurements as given in publication PMC3324464, “The GPI Anchor Signal Sequence Dictates the Folding and Functionality of the Als5 Adhesin from Candida albicans” (PLoS ONE, 2012).
Entries after “also recorded” stand apart in the source; their conditions may differ.

Legend:
GST-Als5 [1] = molecular target: T1, GST-Als5 (Candida albicans, UniProt Q5A8T7 20-1327); assay: other fluorescence titration; conditions: both partners purified
T1 construct: source: E. coli BL21, purified (glutathione-agarose); not shown: GST, N-terminal, kept
T1 sequence: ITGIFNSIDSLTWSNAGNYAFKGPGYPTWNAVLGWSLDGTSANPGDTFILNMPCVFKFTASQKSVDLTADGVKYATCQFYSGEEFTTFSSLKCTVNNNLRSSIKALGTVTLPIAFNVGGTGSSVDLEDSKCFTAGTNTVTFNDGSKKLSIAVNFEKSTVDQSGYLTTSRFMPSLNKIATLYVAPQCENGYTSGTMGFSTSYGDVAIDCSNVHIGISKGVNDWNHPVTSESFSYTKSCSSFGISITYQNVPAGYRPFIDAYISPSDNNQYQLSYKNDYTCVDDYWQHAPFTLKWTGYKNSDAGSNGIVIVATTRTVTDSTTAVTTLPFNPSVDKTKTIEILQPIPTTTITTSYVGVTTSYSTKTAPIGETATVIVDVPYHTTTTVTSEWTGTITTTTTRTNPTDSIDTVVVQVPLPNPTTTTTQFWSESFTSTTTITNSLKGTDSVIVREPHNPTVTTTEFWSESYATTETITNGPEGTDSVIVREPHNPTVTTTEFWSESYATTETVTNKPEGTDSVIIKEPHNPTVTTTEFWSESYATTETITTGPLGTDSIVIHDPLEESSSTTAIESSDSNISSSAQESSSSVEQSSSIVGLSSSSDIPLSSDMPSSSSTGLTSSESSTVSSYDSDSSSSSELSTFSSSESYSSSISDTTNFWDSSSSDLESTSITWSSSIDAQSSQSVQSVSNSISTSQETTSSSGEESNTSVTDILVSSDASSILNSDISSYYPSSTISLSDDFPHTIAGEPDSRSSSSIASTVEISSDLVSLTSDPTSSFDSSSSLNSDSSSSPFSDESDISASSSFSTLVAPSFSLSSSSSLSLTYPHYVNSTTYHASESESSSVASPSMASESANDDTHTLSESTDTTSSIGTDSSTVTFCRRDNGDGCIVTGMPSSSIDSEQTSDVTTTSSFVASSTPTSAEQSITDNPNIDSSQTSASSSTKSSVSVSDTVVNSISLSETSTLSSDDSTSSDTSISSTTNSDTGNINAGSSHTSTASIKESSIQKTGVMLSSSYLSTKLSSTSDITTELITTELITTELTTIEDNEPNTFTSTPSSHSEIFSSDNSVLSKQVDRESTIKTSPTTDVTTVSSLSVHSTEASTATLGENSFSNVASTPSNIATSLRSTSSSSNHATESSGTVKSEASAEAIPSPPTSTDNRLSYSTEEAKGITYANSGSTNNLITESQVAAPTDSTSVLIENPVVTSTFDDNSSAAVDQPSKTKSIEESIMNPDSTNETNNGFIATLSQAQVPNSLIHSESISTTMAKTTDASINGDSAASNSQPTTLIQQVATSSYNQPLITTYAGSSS

GST-Als5 [2] = molecular target: T1, GST-Als5; assay: other fluorescence titration; van't Hoff plots of the association constants from the fluorescence titrations at different temperatures; ΔH° from the slope; conditions: both partners purified
GST-Als5-SS [3] = molecular target: T2, GST-Als5-SS (Candida albicans, UniProt Q5A8T7 20-1326, N-terminal GST tag (pGEX-6P-2) not cleaved, omitted here; expressed in E. coli, unglycosylated. The 4044 bp insert implies the full ORF, including the N-terminal secretion signal, although the figure); assay: as above; conditions: both partners purified
GST-Als5 [4] = molecular target: T1, GST-Als5; assay: other fluorescence titration; tryptophan fluorescence of 0.02 mg/ml protein, peptide titrated in; one-site saturation model; 52 °C (secondary structure of both proteins mildly perturbed at this temperature); conditions: both partners purified
GST-Als5-SS [5] = molecular target: T2, GST-Als5-SS; assay: as above; conditions: both partners purified
GST-Als5 [6] = molecular target: T1, GST-Als5; assay: other fluorescence titration; tryptophan fluorescence of 0.02 mg/ml protein, peptide titrated in; one-site saturation model; 42 °C; conditions: both partners purified
[7] = Aggregation by transmission electron microscopy; assay type: physicochemical; conditions: 37 °C, 2 weeks; 0.4 µM / 0.09 mg/ml (method)
Procedure: Transmission Electron Microscopy (TEM)
TEM studies were carried out on a JEOL 2100F. The proteins (0.09 mg/ml) were incubated at 37 °C for 2 weeks prior to the measurements. The proteins were spotted on a carbon-coated copper grid and positively stained with 2% uranyl acetate. The sample was then dried and examined by TEM using a 210 kV accelerating voltage.
Figure 5 Transmission electron microscope images showing aggregation by GST-Als5. […] The scale bar in each panel represents 100 nm. Left panel: 10,000X magnification. Right panel: 25,000X magnification.
(A) Prediction of β-aggregation potential for the GPI anchor attachment signal sequence (SS). The prediction of β-aggregation potential for the SS was done using TANGO (residues 1328–1347). Also shown is the propensity for α-helix, β-turn and β-sheet formation in the unfolded polypeptide chain as predicted by TANGO. […] (B). Transmission electron microscope images showing aggregation by SS and SS in the presence of GST-Als5. The samples, SS (40.0 µM), GST-Als5 (0.4 µM) and GST-Als5 (0.4 µM) + SS (40.0 µM) were incubated as 37 °C for two days before TEM images were recorded.

Row | Molecule | Kd (GST-Als5 [1]) | dH (GST-Als5 [2]) | dH (GST-Als5-SS [3]) | Kd (GST-Als5 [4]) | Kd (GST-Als5-SS [5]) | Kd (GST-Als5 [6]) | aggregation (in words) [7]
1 | AYKSLMT (source: synthetic peptide (USV Ltd.)) | 13 nM | -0.803 kcal/mol | 18.6 kcal/mol | 12 nM | 2 nM | 9 nM | 
2 | GST-Als5-SS: GST fusion of Als5 with the GPI-anchor attachment signal sequence, expressed in E. coli (protein, left off: GST, N-terminal, kept) ITGIFNSIDSLTWSNAGNYAFKGPGYPTWNAVLGWSLDGTSANPGDTFILNMPCVFKFTASQKSVDLTADGVKYATCQFYSGEEFTTFSSLKCTVNNNLRSSIKALGTVTLPIAFNVGGTGSSVDLEDSKCFTAGTNTVTFNDGSKKLSIAVNFEKSTVDQSGYLTTSRFMPSLNKIATLYVAPQCENGYTSGTMGFSTSYGDVAIDCSNVHIGISKGVNDWNHPVTSESFSYTKSCSSFGISITYQNVPAGYRPFIDAYISPSDNNQYQLSYKNDYTCVDDYWQHAPFTLKWTGYKNSDAGSNGIVIVATTRTVTDSTTAVTTLPFNPSVDKTKTIEILQPIPTTTITTSYVGVTTSYSTKTAPIGETATVIVDVPYHTTTTVTSEWTGTITTTTTRTNPTDSIDTVVVQVPLPNPTTTTTQFWSESFTSTTTITNSLKGTDSVIVREPHNPTVTTTEFWSESYATTETITNGPEGTDSVIVREPHNPTVTTTEFWSESYATTETVTNKPEGTDSVIIKEPHNPTVTTTEFWSESYATTETITTGPLGTDSIVIHDPLEESSSTTAIESSDSNISSSAQESSSSVEQSSSIVGLSSSSDIPLSSDMPSSSSTGLTSSESSTVSSYDSDSSSSSELSTFSSSESYSSSISDTTNFWDSSSSDLESTSITWSSSIDAQSSQSVQSVSNSISTSQETTSSSGEESNTSVTDILVSSDASSILNSDISSYYPSSTISLSDDFPHTIAGEPDSRSSSSIASTVEISSDLVSLTSDPTSSFDSSSSLNSDSSSSPFSDESDISASSSFSTLVAPSFSLSSSSSLSLTYPHYVNSTTYHASESESSSVASPSMASESANDDTHTLSESTDTTSSIGTDSSTVTFCRRDNGDGCIVTGMPSSSIDSEQTSDVTTTSSFVASSTPTSAEQSITDNPNIDSSQTSASSSTKSSVSVSDTVVNSISLSETSTLSSDDSTSSDTSISSTTNSDTGNINAGSSHTSTASIKESSIQKTGVMLSSSYLSTKLSSTSDITTELITTELITTELTTIEDNEPNTFTSTPSSHSEIFSSDNSVLSKQVDRESTIKTSPTTDVTTVSSLSVHSTEASTATLGENSFSNVASTPSNIATSLRSTSSSSNHATESSGTVKSEASAEAIPSPPTSTDNRLSYSTEEAKGITYANSGSTNNLITESQVAAPTDSTSVLIENPVVTSTFDDNSSAAVDQPSKTKSIEESIMNPDSTNETNNGFIATLSQAQVPNSLIHSESISTTMAKTTDASINGDSAASNSQPTTLIQQVATSSYNQPLITTYAGSS |  |  |  |  |  |  | showed very poor aggregation; also recorded: showed no propensity for aggregation
